Two molecules from patent US20220305133A1 (CSL INNOVATION, published 2022) can be followed below.

In assay [1] the target is T1, murine G-CSF receptor (G-CSFR) on mouse NFS-60 cells (mouse, UniProt P40223 26-837).
T1 sequence (looked up): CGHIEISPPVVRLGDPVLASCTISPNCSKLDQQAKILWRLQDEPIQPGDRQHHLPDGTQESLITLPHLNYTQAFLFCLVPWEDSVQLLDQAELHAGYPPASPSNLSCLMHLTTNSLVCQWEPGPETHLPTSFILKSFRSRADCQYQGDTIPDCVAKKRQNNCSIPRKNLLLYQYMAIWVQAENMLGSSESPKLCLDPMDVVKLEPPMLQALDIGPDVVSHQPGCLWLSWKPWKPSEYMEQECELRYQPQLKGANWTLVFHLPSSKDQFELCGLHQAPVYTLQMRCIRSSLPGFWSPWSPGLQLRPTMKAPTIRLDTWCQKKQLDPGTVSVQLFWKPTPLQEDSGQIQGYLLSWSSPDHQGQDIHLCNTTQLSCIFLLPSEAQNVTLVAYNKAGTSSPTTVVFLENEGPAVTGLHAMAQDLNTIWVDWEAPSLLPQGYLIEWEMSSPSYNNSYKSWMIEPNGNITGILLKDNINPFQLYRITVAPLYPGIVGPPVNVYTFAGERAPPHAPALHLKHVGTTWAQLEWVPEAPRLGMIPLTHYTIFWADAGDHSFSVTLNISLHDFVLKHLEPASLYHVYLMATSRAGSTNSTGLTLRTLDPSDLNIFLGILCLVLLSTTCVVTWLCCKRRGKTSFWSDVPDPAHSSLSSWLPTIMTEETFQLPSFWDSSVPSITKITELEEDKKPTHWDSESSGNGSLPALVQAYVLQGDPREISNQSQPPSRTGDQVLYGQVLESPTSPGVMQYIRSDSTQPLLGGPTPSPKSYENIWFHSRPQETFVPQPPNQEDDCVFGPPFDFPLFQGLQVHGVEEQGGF
Put plainly: cell-based or functional assay.

Assay [2] has as its target T2, Factor XIIa (activated Factor XII) (UniProt P00748 20-615, limits assumed).
T2 sequence (looked up): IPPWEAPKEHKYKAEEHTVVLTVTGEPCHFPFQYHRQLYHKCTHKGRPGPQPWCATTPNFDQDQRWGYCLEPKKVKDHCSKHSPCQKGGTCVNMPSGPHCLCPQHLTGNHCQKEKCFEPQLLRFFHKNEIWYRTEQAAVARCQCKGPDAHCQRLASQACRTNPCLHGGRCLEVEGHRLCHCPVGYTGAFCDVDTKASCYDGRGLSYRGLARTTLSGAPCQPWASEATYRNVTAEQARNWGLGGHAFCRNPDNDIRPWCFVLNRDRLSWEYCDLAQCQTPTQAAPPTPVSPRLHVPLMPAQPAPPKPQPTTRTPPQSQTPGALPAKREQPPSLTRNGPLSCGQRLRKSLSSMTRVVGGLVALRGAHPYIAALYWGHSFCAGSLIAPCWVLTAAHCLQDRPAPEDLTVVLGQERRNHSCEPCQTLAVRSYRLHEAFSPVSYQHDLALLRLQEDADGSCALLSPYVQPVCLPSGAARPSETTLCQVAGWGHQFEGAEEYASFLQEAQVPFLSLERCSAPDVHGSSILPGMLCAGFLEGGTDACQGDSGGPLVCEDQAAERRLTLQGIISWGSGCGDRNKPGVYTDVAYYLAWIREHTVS
Put plainly: cell-based or functional assay.

B1: VR81, mouse monoclonal IgG1κ antibody against the extracellular domain of murine G-CSFR (antibody, V domains shown)
VH: EVQLLESGGGLVQPGGSLRLSCAASGFTFSYYAMWWVRQAPGKGLEWVSLIDVSGGVQLYADSVKGRFTISRDNSKNTLYLQMNSLRAEDTAVYYCAKPLIGTRDAFDIWGQGTMVTVSS
VL: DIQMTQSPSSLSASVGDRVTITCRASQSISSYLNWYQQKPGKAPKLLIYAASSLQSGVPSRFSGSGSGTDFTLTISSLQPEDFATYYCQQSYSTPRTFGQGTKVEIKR
B1: in assay [1], the “IC50 (nM), inhibition of mG-CSF-dependent proliferation of mouse NFS-60 cells, stimulated with 0.1 ng/ml mG-CSF” value stood at 0.00104 nM and the “IC50 (nM), inhibition of mG-CSF-dependent proliferation of mouse NFS-60 cells, stimulated with 1.0 ng/ml mG-CSF” value turned out to be 0.00323 nM.

B2: ch3F7-mG1L-aFXII (3F7) (antibody, V domains shown)
VH: EVQLLESGGGLVQPGGSLRLSCAASGFTFSKYIMQWVRQAPGKGLEWVSGIRPSGGTTVYADSVKGRFTISRDNSKNTLYLQMNSLRAEDTAVYYCARALPRSGYLISPHYYYYALDVWGQGTTVTVSS
VL: QSELTQPPSASGTPGQRVTISCSGSSSNIGRNYVYWYQQVPGTAPKLLIYSNNQRPSGVPDRFSGSKSGTSASLVISGLRSEDEADYYCAAWDASLRGVFGGGTKLTVLG
Turning to B2, the “IC50 (nM), chromogenic assay of Factor XIIa activity” value in assay [2] was determined as 17.2 nM.
